This note sets out measurements from patent publication US20220289816A1, “IMMUNOTHERAPY WITH B*07 RESTRICTED PEPTIDES AND COMBINATION OF PEPTIDES AGAINST CANCERS AND RELATED METHODS” (Immatics Biotechnologies GmbH, priority 2018, published 2022).

For this assay, the target named is HLA-B*07 (Homo sapiens, UniProt P01889). Description: MHC binding assay (UV-ligand exchange, ELISA of stabilized MHC complexes). Conditions: peptide exchange yield on HLA-B*07, UV-ligand exchange. From the text:
Candidate peptides for T cell based therapies according to the present invention were further tested for their MHC binding capacity (affinity). The individual peptide-MHC complexes were produced by UV-ligand exchange, where a UV-sensitive peptide is cleaved upon UV-irradiation and exchanged with the peptide of interest as analyzed. Only peptide candidates that can effectively bind and stabilize the peptide-receptive MHC molecules prevent dissociation of the MHC complexes. To determine the yield of the exchange reaction, an ELISA was performed based on the detection of the light chain (β2m) of stabilized MHC complexes. The assay was performed as generally described in Rodenko et al. (Rodenko et al., 2006)
96 well MAXISorp plates (NUNC) were coated over night with 2 ug/ml streptavidin in PBS at room temperature, washed 4× and blocked for 1 h at 37° C. in 2% BSA containing blocking buffer. […] Peptide-MHC monomers of the UV-exchange reaction were diluted 100-fold in blocking buffer. Samples were incubated for 1 h at 37° C., washed four times, incubated with 2 ug/ml HRP conjugated anti-[…] for 1 h at 37° C., washed again and detected with TMB solution that is stopped with […]. Absorption was measured at 450 nm. Candidate peptides that show a high exchange yield (preferably higher than 50%, most preferred higher than 75%) are generally preferred for a generation and production of antibodies or fragments thereof, and/or T cell receptors or fragments thereof, as they show sufficient avidity to the MHC molecules and prevent dissociation of the MHC complexes.
With “99 (MPVSAFTVI; listed as Homo sapiens) [compound 99]”, the Peptide exchange entry is given as “++++ (>75% = ++++)”.
Consider “101 (KPGLPGLK; listed as Homo sapiens) [compound 101]”, for which the Peptide exchange result is listed as “+ (>10% = +)”.
The value for “102 (MAGPAIHTAPM; listed as Homo sapiens) [compound 102]” was “++ (>20% = ++)”; that for “103 (REPIMKADML; listed as Homo sapiens) [compound 103]” was “++ (>20% = ++)”.
As to “104 (RPLPNSVIHV; listed as Homo sapiens) [compound 104]”, the Peptide exchange result is “+++ (>50 = +++)”.
In the case of “105 (RPRYETGVCA; listed as Homo sapiens) [compound 105]”, the Peptide exchange entry is recorded as “++++ (>75% = ++++)”.
The result for “106 (APFHIDRLF; listed as Homo sapiens) [compound 106]” reads “+++ (>50 = +++)”; that for “108 (APRGSPPI; listed as Homo sapiens) [compound 108]”, “+++ (>50 = +++)”; that for “109 (LPRALMRST; listed as Homo sapiens) [compound 109]”, “+++ (>50 = +++)”.
The result for “110 (YPSSPASAV; listed as Homo sapiens) [compound 110]” reads “++++ (>75% = ++++)”; that for “111 (YPLQQTNVY; listed as Homo sapiens) [compound 111]”, “+ (>10% = +)”; that for “112 (YPSPLNKHSF; listed as Homo sapiens) [compound 112]”, “+++ (>50 = +++)”.
Regarding “113 (KPHLDRRGAVI; listed as Homo sapiens) [compound 113]”, the Peptide exchange result is on record as “++++ (>75% = ++++)”.
“114 (FVPPSGPSNPM; listed as Homo sapiens) [compound 114]”: the Peptide exchange entry is “++ (>20% = ++)”.
On to “115 (KTKSLAQQL; listed as Homo sapiens) [compound 115]”, for which the Peptide exchange result is on record as “+++ (>50 = +++)”.
As for “117 (IPHQRSSL; listed as Homo sapiens) [compound 117]”, the Peptide exchange entry was “++++ (>75% = ++++)”.
“118 (NPERHKPSF; listed as Homo sapiens) [compound 118]”: the Peptide exchange entry is “+++ (>50 = +++)”.
On to “119 (KATEYVHSL; listed as Homo sapiens) [compound 119]”, for which the Peptide exchange entry is “+ (>10% = +)”.
The result for “120 (TVRPKNAAL; listed as Homo sapiens) [compound 120]” reads “+++ (>50 = +++)”; that for “121 (GPFQRAAL; listed as Homo sapiens) [compound 121]”, “+++ (>50 = +++)”; that for “122 (KPRTPFTTAQLL; listed as Homo sapiens) [compound 122]”, “++++ (>75% = ++++)”.
For the substance “123 (RPRLRDLPAL; listed as Homo sapiens) [compound 123]”, the Peptide exchange entry was “+++ (>50 = +++)”.
The result for “125 (SPAKQFNIY; listed as Homo sapiens) [compound 125]” reads “++ (>20% = ++)”; that for “126 (MPREDAHF; listed as Homo sapiens) [compound 126]”, “+ (>10% = +)”.
In the case of “127 (KSKQVITLL; listed as Homo sapiens) [compound 127]”, the Peptide exchange entry is given as “+ (>10% = +)”.
As to “129 (MTLPATTLTL; listed as Homo sapiens) [compound 129]”, the Peptide exchange entry is listed as “++ (>20% = ++)”.
Turning to “130 (GAYDKARYL; listed as Homo sapiens) [compound 130]”, the Peptide exchange entry is reported as “++ (>20% = ++)”.
Take “131 (MPFRNIRSIL; listed as Homo sapiens) [compound 131]”: the Peptide exchange result is reported as “+++ (>50 = +++)”.
Regarding “132 (LPRLPVGSLV; listed as Homo sapiens) [compound 132]”, the Peptide exchange result is “++++ (>75% = ++++)”.
On to “133 (LPELPTTLTF; listed as Homo sapiens) [compound 133]”, for which the Peptide exchange result is reported as “++ (>20% = ++)”.
With “134 (VAAAARLTL; listed as Homo sapiens) [compound 134]”, the Peptide exchange entry is given as “+++ (>50 = +++)”.
The value for “135 (MPRLLRLSL; listed as Homo sapiens) [compound 135]” was “+++ (>50 = +++)”; that for “136 (QPDHAGIFRVF; listed as Homo sapiens) [compound 136]” was “++++ (>75% = ++++)”.
For the substance “139 (LVILQHQAM; listed as Homo sapiens) [compound 139]”, the Peptide exchange entry is “+++ (>50 = +++)”.
With “140 (TPFPDIHWF; listed as Homo sapiens) [compound 140]”, the Peptide exchange result is “++++ (>75% = ++++)”.
The result for “141 (YGPYGSGSGW; listed as Homo sapiens) [compound 141]” reads “++ (>20% = ++)”.
The value for “143 (YPMIPPAQL; listed as Homo sapiens) [compound 143]” was “+++ (>50 = +++)”; that for “144 (RPVQGIPTY; listed as Homo sapiens) [compound 144]” was “+++ (>50 = +++)”.
The result for “145 (VPAQRLGLLL; listed as Homo sapiens) [compound 145]” reads “+++ (>50 = +++)”.
On to “146 (SPTRGSEF; listed as Homo sapiens) [compound 146]”, for which the Peptide exchange entry is given as “++++ (>75% = ++++)”.
As to “147 (HVAQPAVVL; listed as Homo sapiens) [compound 147]”, the Peptide exchange entry is “+++ (>50 = +++)”.
For the substance “149 (SPSSVFTSK; listed as Homo sapiens) [compound 149]”, the Peptide exchange result is “+++ (>50 = +++)”.
On to “150 (APLHGGGSL; listed as Homo sapiens) [compound 150]”, for which the Peptide exchange result is recorded as “+++ (>50 = +++)”.
The value for “151 (QPTWNTQTRL; listed as Homo sapiens) [compound 151]” was “++++ (>75% = ++++)”; that for “152 (SSASFSSELFRH; listed as Homo sapiens) [compound 152]” was “+++ (>50 = +++)”; that for “153 (QPVHSLCSA; listed as Homo sapiens) [compound 153]” was “++++ (>75% = ++++)”.
In the case of “154 (RPPPSRRAVL; listed as Homo sapiens) [compound 154]”, the Peptide exchange entry is listed as “+++ (>50 = +++)”.
On to “156 (GSRPVTGSV; listed as Homo sapiens) [compound 156]”, for which the Peptide exchange result is reported as “+++ (>50 = +++)”.
The value for “157 (RPVTGSVC; listed as Homo sapiens) [compound 157]” was “++++ (>75% = ++++)”.
Regarding “158 (SVPVATVEL; listed as Homo sapiens) [compound 158]”, the Peptide exchange result is reported as “++ (>20% = ++)”.
The result for “160 (IPVSHPVLTF; listed as Homo sapiens) [compound 160]” reads “++ (>20% = ++)”.
The result for “161 (ASKILETSL; listed as Homo sapiens) [compound 161]” reads “++ (>20% = ++)”; that for “162 (IPIRVDQNGAF; listed as Homo sapiens) [compound 162]”, “+++ (>50 = +++)”; that for “164 (RAAGRRLQL; listed as Homo sapiens) [compound 164]”, “++++ (>75% = ++++)”.
The result for “165 (RPSKEMQVTI; listed as Homo sapiens) [compound 165]” reads “++++ (>75% = ++++)”; that for “167 (NVNPARKGL; listed as Homo sapiens) [compound 167]”, “++++ (>75% = ++++)”.
On to “168 (SPSGQRDVSL; listed as Homo sapiens) [compound 168]”, for which the Peptide exchange result is listed as “++++ (>75% = ++++)”.
As for “169 (RPFSVSSISQL; listed as Homo sapiens) [compound 169]”, the Peptide exchange entry is “++++ (>75% = ++++)”.
As for “170 (APEGKRLGF; listed as Homo sapiens) [compound 170]”, the Peptide exchange entry is listed as “++++ (>75% = ++++)”.
Consider “171 (LPLGGHKSL; listed as Homo sapiens) [compound 171]”, for which the Peptide exchange result is listed as “+++ (>50 = +++)”.
Regarding “172 (SAQSLHPVL; listed as Homo sapiens) [compound 172]”, the Peptide exchange entry was “+++ (>50 = +++)”.
With “173 (VIINNPISL; listed as Homo sapiens) [compound 173]”, the Peptide exchange entry is “++ (>20% = ++)”.
The result for “174 (IPVTSSVTL; listed as Homo sapiens) [compound 174]” reads “++++ (>75% = ++++)”.
The value for “176 (QPLDICHSF; listed as Homo sapiens) [compound 176]” was “++++ (>75% = ++++)”; that for “177 (VWEPQGSSRSL; listed as Homo sapiens) [compound 177]” was “+++ (>50 = +++)”.
In the case of “178 (VPYYPRANL; listed as Homo sapiens) [compound 178]”, the Peptide exchange result is recorded as “+++ (>50 = +++)”.
In the case of “180 (RLRDYISSL; listed as Homo sapiens) [compound 180]”, the Peptide exchange result is given as “++++ (>75% = ++++)”.
